Reference: patent US7135457

T1: human D2H transporter receptor domain, amino acid residues 387-685, His-tag fusion protein (human), Q07837
T1 chain: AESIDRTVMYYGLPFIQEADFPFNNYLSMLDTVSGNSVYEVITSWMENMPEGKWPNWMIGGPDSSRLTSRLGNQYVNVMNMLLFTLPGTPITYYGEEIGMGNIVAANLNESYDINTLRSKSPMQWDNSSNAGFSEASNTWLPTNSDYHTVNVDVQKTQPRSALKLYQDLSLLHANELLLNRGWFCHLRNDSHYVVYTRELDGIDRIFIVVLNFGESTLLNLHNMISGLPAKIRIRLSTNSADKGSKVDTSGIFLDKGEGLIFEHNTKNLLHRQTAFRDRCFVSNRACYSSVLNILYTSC


Experiments:
[1] = molecular target: T2, human sucrase-isomaltase complex (hSI) receptor domain, amino acid residues 272-667, His-tag fusion protein (human), P14410; assay: phage ELISA, coated hSI domain
[2] = molecular target: T2, human sucrase-isomaltase complex (hSI) …; assay: phage ELISA, OD on hSI over OD on BSA
[3] = molecular target: T1, human D2H transporter receptor domain, …; assay: phage ELISA, coated D2H domain
[4] = molecular target: T1, human D2H transporter receptor domain, …; assay: phage ELISA, OD on D2H over OD on BSA

T2 sequence (P14410 272-667, one chain of several): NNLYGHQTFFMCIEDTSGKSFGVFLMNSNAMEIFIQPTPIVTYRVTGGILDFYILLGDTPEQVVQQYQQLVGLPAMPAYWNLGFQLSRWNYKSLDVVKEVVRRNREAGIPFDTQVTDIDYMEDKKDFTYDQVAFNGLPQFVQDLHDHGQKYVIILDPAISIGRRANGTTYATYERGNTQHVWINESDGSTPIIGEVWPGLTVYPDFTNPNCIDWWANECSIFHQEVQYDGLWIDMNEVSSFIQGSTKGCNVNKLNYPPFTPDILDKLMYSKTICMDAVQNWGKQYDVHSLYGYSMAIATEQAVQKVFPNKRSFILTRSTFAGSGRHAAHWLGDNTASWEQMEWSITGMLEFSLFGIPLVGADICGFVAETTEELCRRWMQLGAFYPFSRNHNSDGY

Binder | OD [1] [OD 650 nm] | hSI/BSA [2] | OD [3] [OD 650 nm] | D2H/BSA [4]
SPRSFWPVVSRHESFGISNYLGCGYRTCISGTMTKSSPIYPRHS (modifications not checked) [phage S21] | 0.845 | 9 | – | –
SWSSWNWSSKTTRLGDRATREGCGPSQSDGCPYNGRLTTVKPRT (modifications not checked) [phage DCX36] | – | – | 0.293 | 5
